# Measurements: publication doi:10.1101/2021.02.09.429966 (bioRxiv, 2021)
# B1: T1-2-IgG1 (antibody, V domains shown)
# VH: QVQLKESGPGLVAPSQSLSITCAISGFSLSRYSVHWVRQPPGKGLEWLGMIWGGGNTDYNSALKSRLSISKDNSKSQVFLKMNSLQTDDTAMYYCARKGEFYYGYDGFVYWGQGTLVTVSA
# VL: NIMMTQSPSSLAVSAGEKVTMSCKSSQSVLYSSNQKNYLAWYQQKPGQSPKLLIYWASTRESGVPDRFTGSGSGTDFTLTISSVQAEDLAVYYCHQYLSSYTFGGGTKLEIK
# Biological target: Clumping factor A (ClfA) on S. aureus LACΔspaΔsbi (Staphylococcus aureus USA300 LAC Δspa, …, UniProt A0A0H2XG16)
# Assay: flow cytometry on cells
binder,measurement,value
B1,binding result,binds
